B1: Ab#2_GLP1: DPP-4-resistant GLP-1 analogue peptide fused by the [G4S]3A linker to the light chain of anti-PCSK9 Ab#2 (antibody, V domains shown)
VH: QVQLVQSGAEVKKPGASVKVSCKASGYTFTSYYMHWVRQAPGQGLEWMGEIHPSGGRTNYNEKFKSRVTMTRDTSTSTVYMELSSLRSEDTAVYYCARERPLYASDLWGQGTTVTVSS
VL: DIQMTQSPSSLSASVGDRVTITCKASQDVHTAVAWYQQKPGKAPKLLIYHASYRYTGVPSRFSGSGSGTDFTFTISSLQPEDIATYYCQQRYSLWRTFGQGTKLEIK
notes: also called non-glycosylated Ab#2_GLP1 fusion; source: CHO cells, transient co-transfection, purified (Protein A MabSelectSure)
B2: anti-PCSK9 antibody Ab#2 (antibody, V domains shown)
VH: B1 VH
VL: B1 VL
notes: also called anti-PCSK9 Ab#2; source: CHO cells, transient co-transfection, purified (Protein A MabSelectSure)

Tests used:
[1] = molecular target: T1, recombinant human PCSK9 (proprotein convertase subtilisin/kexin type 9) (human, UniProt Q8NBP7); experiment: SPR; sensorgrams of recombinant human PCSK9 binding to Ab#2 and to Ab#2_GLP1; typical of 8 independent experiments; set-up and conditions not told in the main text; conditions: both partners purified
T1 construct: also called recombinant PCSK9; source: recombinant

[2] = molecular target: human GLP-1 receptor on stably transfected CHO cells (human) (UniProt P43220)
Chain of human GLP-1 receptor on stably transfected CHO cells (human) (P43220 24-463): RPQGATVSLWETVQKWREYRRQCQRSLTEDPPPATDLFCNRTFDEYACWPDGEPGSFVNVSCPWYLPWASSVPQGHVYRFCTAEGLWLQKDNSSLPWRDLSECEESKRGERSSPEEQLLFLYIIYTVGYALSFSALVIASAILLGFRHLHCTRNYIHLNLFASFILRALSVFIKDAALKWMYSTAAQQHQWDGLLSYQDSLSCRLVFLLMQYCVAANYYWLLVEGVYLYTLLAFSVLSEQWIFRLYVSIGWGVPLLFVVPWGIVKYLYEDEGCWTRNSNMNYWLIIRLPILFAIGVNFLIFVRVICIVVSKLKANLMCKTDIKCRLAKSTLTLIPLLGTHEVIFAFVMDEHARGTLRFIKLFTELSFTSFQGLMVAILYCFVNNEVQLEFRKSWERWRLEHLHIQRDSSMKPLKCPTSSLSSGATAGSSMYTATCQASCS

| Binder | binding result [1] | potency in the cAMP accumulation assay, CHO cells expressing human GLP-1R [2] |
| --- | --- | --- |
| B1 | binds | 0.087 nM |
| B2 | binds |  |

Reference: PMC6277417 (Scientific Reports, 2018)
